In patent US20090117613A1, “Method for redox reaction using an old yellow enzyme” (priority 2007, published 2009):

Legend:
[1] = GkOYE-catalyzed desaturation of testosterone to boldenone (HPLC/MS); format: biochemical; details: 30-70° C., varied in 5° C. increments
[2] = Desaturation of cyclohexanone to cyclohex-2-enone and phenol; details: 30, 50, and 70° C.
Description: The reaction sample contained 500 μL protein solution and 10 mM Cyclohexanone (˜1 μL). The final volume of the reaction was ˜500 μL. The reaction was carried out at 70° C. for 24 hours.
(§1) The desaturation reaction was carried out using cyclohexanone with all three enzymes at 30, 50, and 70° C. The reductase activity using cyclohexenone as substrate was also measured under similar conditions.

[3] = Reduction of carvone to dihydrocarvone; format: biochemical; details: cyclohexenone and carvone as substrates
Description: The sample for the reduction reaction contained: 500 μL protein solution+(+)Carvone (˜1.5 μL)+200 μL GDH 102 (10 mg/mL) and Glucose (200 mM)+100 μL NADPH (10 mM). The final volume of the reaction was 800 μL. The reaction was carried out for 24 h at various temperatures (see table 2).

[4] = Reductase activity using cyclohexenone as substrate; format: biochemical; details: for reductase activity (saturation of cyclohexenone): 30, 50, and 70° C.
Description: as §1

Molecule	testosterone hydroxylation or desaturation (oxidized testosterone derivative) [1]	desaturation of cyclohexanone [2]	stereoselectivity of reductase activity [3]	reductase activity (saturation of cyclohexenone) [4]	enone reductase activity ([4]; 70° C.)
YqjM: Homologous OYE from Bacillus subtilis (similarity: 80%), expression clone from TU-Graz (protein, UniProt P54550 2-338, looked up) NADPH dehydrogenase: ARKLFTPITIKDMTLKNRIVMSPMCMYSSHEKDGKLTPFHMAHYISRAIGQVGLIIVEASAVNPQGRITDQDLGIWSDEHIEGFAKLTEQVKEQGSKIGIQLAHAGRKAELEGDIFAPSAIAFDEQSATPVEMSAEKVKETVQEFKQAAARAKEAGFDVIEIHAAHGYLIHEFLSPLSNHRTDEYGGSPENRYRFLREIIDEVKQVWDGPLFVRVSASDYTDKGLDIADHIGFAKWMKEQGVDLIDCSSGALVHADINVFPGYQVSFAEKIREQADMATGAVGMITDGSMAEEILQNGRADLIFIGRELLRDPFFARTAAKQLNTEIPAPVQYERGW	no oxidized testosterone derivative is detected	no desaturation was observed	comparable to GkOYE	significantly reduced reductase activity	demonstrated
OPR3: OPR3 (tomato) recombinant OYE, expression clone from TU-Graz (protein, UniProt Q9FEW9 1-396, looked up) 12-oxophytodienoate reductase …: MASSAQDGNNPLFSPYKMGKFNLSHRVVLAPMTRCRALNNIPQAALGEYYEQRATAGGFLITEGTMISPTSAGFPHVPGIFTKEQVREWKKIVDVVHAKGAVIFCQLWHVGRASHEVYQPAGAAPISSTEKPISNRWRILMPDGTHGIYPKPRAIGTYEISQVVEDYRRSALNAIEAGFDGIEIHGAHGYLIDQFLKDGINDRTDEYGGSLANRCKFITQVVQAVVSAIGADRVGVRVSPAIDHLDAMDSNPLSLGLAVVERLNKIQLHSGSKLAYLHVTQPRYVAYGQTEAGRLGSEEEEARLMRTLRNAYQGTFICSGGYTRELGIEAVAQGDADLVSYGRLFISNPDLVMRIKLNAPLNKYNRKTFYTQDPVVGYTDYPFLQGNGSNGPLSRL		no desaturation was observed	comparable to GkOYE	almost inactive at 50 °C	
